First the molecules themselves.
B1: L25K (designed binder)
chain: SMEEEVEKAAKEYEKKKKEAIEKHKEKLKAKDKEAAERFLKELEEAAKEYAKDEAKTMSEEEAKRRAKKYKEKVLLSELSEEEQKEIKEAEEKLVRTILKYVEEAAK
B2: E61A (designed binder)
chain: B1 chain with K25L, E61A
B3: K16Y (designed binder)
chain: B1 chain with K16Y, K25L
B4: S1T (designed binder)
chain: B1 chain with S1T, K25L
B5: A46G (designed binder)
chain: B1 chain with K25L, A46G
B6: D53R (designed binder)
chain: B1 chain with K25L, D53R
B7: E19W (designed binder)
chain: B1 chain with E19W, K25L
B8: K69S (designed binder)
chain: B1 chain with K25L, K69S
B9: D32K (designed binder)
chain: B1 chain with K25L, D32K
B10: L43T (designed binder)
chain: B1 chain with K25L, L43T
B11: K100C (designed binder)
chain: B1 chain with K25L, K100C
B12: A10H (designed binder)
chain: B1 chain with A10H, K25L
B13: K85P (designed binder)
chain: B1 chain with K25L, K85P
B14: T57W (designed binder)
chain: B1 chain with K25L, T57W
B15: A35L (designed binder)
chain: B1 chain with K25L, A35L
B16: K8Q (designed binder)
chain: B1 chain with K8Q, K25L
B17: V95P (designed binder)
chain: B1 chain with K25L, V95P
B18: K73Q (designed binder)
chain: B1 chain with K25L, K73Q
B19: V6A (designed binder)
chain: B1 chain with V6A, K25L
B20: E89T (designed binder)
chain: B1 chain with K25L, E89T
B21: E60R (designed binder)
chain: B1 chain with K25L, E60R
B22: E22P (designed binder)
chain: B1 chain with E22P, K25L

Positions count from the first letter of the chain named. In names and notes the source's numbering stands.

In this test the target is T1, TNFR1 (Homo sapiens, UniProt P19438).
T1 chain: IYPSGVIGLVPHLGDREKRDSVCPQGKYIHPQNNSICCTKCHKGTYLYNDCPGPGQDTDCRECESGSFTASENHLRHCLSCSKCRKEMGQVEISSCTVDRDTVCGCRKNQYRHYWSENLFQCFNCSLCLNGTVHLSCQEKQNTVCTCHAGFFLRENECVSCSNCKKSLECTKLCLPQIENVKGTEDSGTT
Nature of the test: yeast display SC50.
For B1, the “apparent Kd (screen)” value stood at 1.4 nM.
Under B2 stands 1.27 nM.
Take B3: the “apparent Kd (screen)” value stood at 0.446 nM.
Under B4 stands 0.49 nM; under B5, 0.49 nM.
Next, B6: 2.73 nM; B7: 0.539 nM; B8: 0.446 nM.
In the case of B9, the “apparent Kd (screen)” value came out at 1.05 nM.
Next, B10: 0.49 nM; B11: 3 nM; B12: 3.3 nM.
Turning to B13, the “apparent Kd (screen)” value came out at 18.3 nM.
Under B14 stands 0.304 nM; under B15, 0.446 nM; under B16, 0.956 nM.
Turning to B17, the “apparent Kd (screen)” value was found to be 5.31 nM.
Under B18 stands 1.05 nM; under B19, 0.539 nM.
With B20, the “apparent Kd (screen)” value came to 2.25 nM.
Next, B21: 1.16 nM; B22: 12.5 nM.

The values above are taken from PMC12416549 (2024).
